From patent publication US20090271896A1 (SAMUEL ROBERTS NOBLE FOUNDATION, published 2009) come the findings set out here.

The target of test [1] is T1, AtVIP2 (Arabidopsis VirE2-Interacting Protein 2), largest cDNA clone in pGAD424 (Arabidopsis thaliana, UniProt Q9FPW4 59-614).
T1 construct: also called At5g59710; GenBank AF295433
T1 sequence: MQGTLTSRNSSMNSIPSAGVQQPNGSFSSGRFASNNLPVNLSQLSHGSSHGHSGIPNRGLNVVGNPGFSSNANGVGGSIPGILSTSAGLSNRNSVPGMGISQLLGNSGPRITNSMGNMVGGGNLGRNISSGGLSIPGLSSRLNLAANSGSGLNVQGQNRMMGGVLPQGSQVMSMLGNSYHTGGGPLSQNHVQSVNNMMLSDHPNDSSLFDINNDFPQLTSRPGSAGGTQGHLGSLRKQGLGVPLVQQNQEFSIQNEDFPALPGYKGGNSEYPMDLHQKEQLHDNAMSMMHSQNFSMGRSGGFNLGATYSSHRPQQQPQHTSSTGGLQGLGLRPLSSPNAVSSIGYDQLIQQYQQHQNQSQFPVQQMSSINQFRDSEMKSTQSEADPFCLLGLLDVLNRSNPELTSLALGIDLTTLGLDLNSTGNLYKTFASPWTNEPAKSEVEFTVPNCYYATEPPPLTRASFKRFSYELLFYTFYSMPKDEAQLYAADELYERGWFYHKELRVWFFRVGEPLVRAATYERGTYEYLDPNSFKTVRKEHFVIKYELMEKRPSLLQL
The test is described as follows: yeast two-hybrid, HIS3 and beta-galactosidase reporters.

For test [2], the target named is T2, NbVIP2 (N. benthamiana VIP2) in pGAD424 (Nicotiana benthamiana, UniProt Q52JK6 1-603).
T2 construct: also called pGAD-NbVIP2; GenBank DQ000202
T2 sequence: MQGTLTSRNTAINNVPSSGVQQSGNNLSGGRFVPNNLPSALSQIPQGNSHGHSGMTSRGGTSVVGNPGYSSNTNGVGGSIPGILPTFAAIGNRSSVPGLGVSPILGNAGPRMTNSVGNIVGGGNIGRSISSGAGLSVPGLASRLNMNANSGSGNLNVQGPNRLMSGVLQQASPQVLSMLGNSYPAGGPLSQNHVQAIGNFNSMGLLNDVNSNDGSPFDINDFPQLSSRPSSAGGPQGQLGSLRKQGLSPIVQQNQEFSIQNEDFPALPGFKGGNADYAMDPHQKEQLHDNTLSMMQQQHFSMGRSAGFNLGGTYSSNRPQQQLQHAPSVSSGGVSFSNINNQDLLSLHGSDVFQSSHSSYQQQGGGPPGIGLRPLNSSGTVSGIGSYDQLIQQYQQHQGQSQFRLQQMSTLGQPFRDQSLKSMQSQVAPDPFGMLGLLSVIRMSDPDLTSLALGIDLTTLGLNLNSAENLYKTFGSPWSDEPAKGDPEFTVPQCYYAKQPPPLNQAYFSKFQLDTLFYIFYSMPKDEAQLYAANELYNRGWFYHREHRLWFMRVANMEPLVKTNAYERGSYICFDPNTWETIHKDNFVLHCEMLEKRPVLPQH
Kind of test: yeast two-hybrid, growth on triple dropout (-Leu/-Trp/-His) plates.

B1: human lamin C (other)
chain: SEEVVSREVSGIKAAYEAELGDARKTLDSVAKERARLQLELSKVREEFKELKARNTKKEGDLIAAQARLKDLEALLNSKEAALSTALSEKRTLEGELHDLRGQVAKLEAALGEAKKQLQDEMLRRVDAENRLQTMKEELDFQKNIYSEELRETKRRHETRLVEID
notes: also called pSTT-LaminC
Consider B1, for which the binding result in test [1] and in test [2] was “no binding” in each case.
